Data reported in paper PMC9802395, “Intratumoral nanobody–IL-2 fusions that bind the tumor extracellular matrix suppress solid tumor growth in mice” (PNAS Nexus, 2022).
Like-named read-outs stand apart in the source and are kept apart here.

Tests used:
[1] = biological target: T1, biotinylated EIIIB (protein fragment of fibronectin splice variant EIIIB) (Homo sapiens (sequence identical in …, UniProt P02751, strain, biotin (ChromaLink NHS-biotin reagent)))
Target sequence in this assay (P02751 1266-1356, stated change not applied): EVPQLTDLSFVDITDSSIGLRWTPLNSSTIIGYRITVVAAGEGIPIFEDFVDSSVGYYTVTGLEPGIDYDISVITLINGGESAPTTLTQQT

[2] = biological target: T1, biotinylated EIIIB (protein fragment of …); test: BLI; biotinylated EIIIB immobilised on streptavidin tips (2 μg/mL); nanobody or IL-2 fusion as analyte, 0.1 to 350 nM; PBS with 0.05% Tween-20 and 1% recombinant human albumin; 1:1 binding model, global fit, double referencing; details: both partners purified

Row | Binder | binding result [1] | Kd [2] [pM] | further results
1 | LMJ1.2G (VHH) VHH: QVQLVETGGGLVQAGGSLRLSCAASGSTFSHSAGGWYRQAPEKQRELVAGIGSDGNINYADSVKDRFTISRDNASNTMYLQMNNLKPEDTAVYVCNIRGSYGNTYYSRWGQGTQVTVSS | binds | – | –
2 | LMJ1.2C nanobody, biotin-tagged (VHH, The text says the nanobodies for BLI were purified with C-terminal polyhistidine tags; source: E. coli WK6, periplasm, purified (Ni-NTA), then sortase-tagged with biotin; not shown: LPETG sortase motif, C-terminal, kept; His6, C-terminal, cleaved) VHH: QVQLVETGGGLVQAGGSLRLSCAASGSTFSHSAGGWYRQAPEKQRELVAGIRSDGNINYADSVKDRFTISRDNASNTMYLQMNNLKPEDTAVYVCNIRGSYGNTYYSRWGQGTQVTVSS | – | 300 | –
3 | LMJ2.5I nanobody, biotin-tagged (VHH, The text says the nanobodies for BLI were purified with C-terminal polyhistidine tags; source: E. coli WK6, periplasm, purified (Ni-NTA), then sortase-tagged with biotin; not shown: LPETG sortase motif, C-terminal, kept; His6, C-terminal, cleaved) VHH: RVQLVETGGGLVQAGGSLRLSCAVSGSTFSHSAGGWYRQAPEKQRELVAGIRSDGNINYADSVKDRFTISRDNASNTMYLQMNNLKPEDTAVYVCNIRGSYGNTYYSRWGQGAQVTVSS | – | 25 | –
4 | NJB2-IL2 (NJB2 nanobody fused to murine IL-2) (VHH, glycine–serine (G5S) linker; murine interleukin-2; about 32 kDa; source: HEK293 cells, transfected, purified (TALON; some by SEC)) VHH: QVQLVETGGGLVQAGGSLRLSCAASGSTFSHNAGGWYRQAPEKQRELVAGISSDGNINYADSVKDRFTISRDNASNTMYLQMNNLKPEDTAVYVCNIRGSYGNTYYSRWGQGTQVTVSS | – | 2000 | –
5 | NJT6-IL2 (NJT6 nanobody fused to murine IL-2) (VHH, glycine–serine (G5S) linker; murine interleukin-2; size-matched control; also called untargeted IL-2; source: HEK293 cells, transfected, purified (TALON; some by SEC)) VHH: QVQLVETGGDLVQPGGSLRLSCAASGLTLDYYAIGWVRQAPGKEREGVSCITPQDGNTYYDDSVMGRFTILRDNAKNMVYLQMNNLKPEDTAVYFCAAAGALTLDPSEYEYWGQGTQVTVSS | – | – | binding result [2]: no binding (tested: 100 nM)

More lines, main results first:

Row | binding result [1] | Kd [2] [pM] | Binder | further results
6 | binds | – | LMJ2.6A (VHH) VHH: RVQLVETGGGLVQAGGSLRLSCAVSGRTFSHSAGGWYRQAPEKQRELVAGIRSDGNINYADSVKDRFTISRDNASNTMYLQMNNLKPGDTAVYVCNIRGSYGNTYYSRWGQGTQVTVSS | –
7 | binds | – | LMJ1.3J (VHH) VHH: QVQLVGTGGGLVQAGGSLRLSCAASGSTFSHSAGGWYRQAPEKQRELVAGISSAGNINYADSVKDRFTISRDNASNTMYLQMNNLKPEDTAVYVCNIRGSYGNTYYSRWGQGTQVTVSS | –
8 | binds | – | LMJ2.5C (VHH) VHH: QVQLVETGGGLVQAGGSLRLSCAASGSTFSHSAGGWYRQAPEKQRELVAGVRSDGNINYADSVKDRFTISRDNASNTMYLQMNNLKPEDTAVYVCNIRGSYGNTYYSRWGQGIQVTVSS | –
9 | binds | – | LMJ2.5J (VHH) VHH: QVQLVETRGGLVQAGGSLRLSCAVSGSTFSHSAGGWYRQAPEKQRELVAGIGSAGNINYADSVKDRFTISRDNASNTMYLQMNNLKPEDTAVYVCNIRGSYGNTYYSRWGQGTQVTVSS | –
